{"source": "paper PMC4175578", "target": "N-terminal domain (residues 1-79) of HCV glycoprotein E1 ectodomain, N43Q (Hepatitis C virus, strain H77)", "assay": "SEC-MALS; analytical Superdex S200 10/30 with online static light scattering; protein not deglycosylated, ~4.2 mg/ml", "data": [{"substance": "N-terminal domain (residues 1-79) of HCV glycoprotein E1 ectodomain, N43Q (domain or fragment)", "values": [{"measurement": "stoichiometry N", "value": 2}]}]}
